Several values for one entry are separate records, joined by “and”; a condition that tells them apart may be missing. Equal values may be shown once.
Biological target: CARD-deleted NLRC4 (mouse) (UniProt Q3UP24)
Experiment: cryo-EM structure

blades of the disk (one of them taken to be NAIP2): 11 blades and 12 blades and 10 blades
Substance: CARD-deleted NLRC4 (from UniProt Q3UP24 1-1024) (domain or fragment)

From publication PMC4640189
